Patent publication US9238830

Tests used:
[1] = test system: PilE T62A variant of N. meningitidis MC58 pilin (pPilET62A)
[2] = test system: PilE S63A variant of N. meningitidis MC58 pilin (pPilES63A)
[3] = test system: PilE N60A variant of N. meningitidis MC58 pilin (pPilEN60A)
[4] = test system: N. meningitidis MC58 pilin (PilE, expression product of pilE, Accession No. AAF40497)
[5] = test system: PilE N61A variant of N. meningitidis MC58 pilin (pPilEN61A)

Question: With “PglL oligosaccharyltransferase of N. meningitidis MC58 (Accession No. AAF41024), His10-tagged (pAMF5)” as the substance, how does the “transfer of O7 polysaccharide to PilE (western blot)” value (“transfer of O7 polysaccharide” below) [1] read?
Answer: mutation of N60, N61 and T62 do not affect glycosylation

Question: What about the “transfer of O7 polysaccharide” value [2] of the same substance?
Answer: mutation S63A completely abolishes transfer of the polysaccharide to PilE

Question: What about the “transfer of O7 polysaccharide” value [3] of the same substance?
Answer: mutation of N60, N61 and T62 do not affect glycosylation

Question: And the “glycosylation of pilin in E. coli CLM24 (western blot, band shift)” value [4]?
Answer: an extra band of slower electrophoretic mobility was detected with both a monoclonal anti-pilin antiserum and the C. jejuni glycan-specific R12 antiserum

Question: What about the “transfer of O7 polysaccharide” value [5] of the same substance?
Answer: mutation of N60, N61 and T62 do not affect glycosylation
